Target: human cytosolic aminopeptidase P, R535A mutant (human) (UniProt Q9NQW7)
Sequence (Q9NQW7 whole entry R535A): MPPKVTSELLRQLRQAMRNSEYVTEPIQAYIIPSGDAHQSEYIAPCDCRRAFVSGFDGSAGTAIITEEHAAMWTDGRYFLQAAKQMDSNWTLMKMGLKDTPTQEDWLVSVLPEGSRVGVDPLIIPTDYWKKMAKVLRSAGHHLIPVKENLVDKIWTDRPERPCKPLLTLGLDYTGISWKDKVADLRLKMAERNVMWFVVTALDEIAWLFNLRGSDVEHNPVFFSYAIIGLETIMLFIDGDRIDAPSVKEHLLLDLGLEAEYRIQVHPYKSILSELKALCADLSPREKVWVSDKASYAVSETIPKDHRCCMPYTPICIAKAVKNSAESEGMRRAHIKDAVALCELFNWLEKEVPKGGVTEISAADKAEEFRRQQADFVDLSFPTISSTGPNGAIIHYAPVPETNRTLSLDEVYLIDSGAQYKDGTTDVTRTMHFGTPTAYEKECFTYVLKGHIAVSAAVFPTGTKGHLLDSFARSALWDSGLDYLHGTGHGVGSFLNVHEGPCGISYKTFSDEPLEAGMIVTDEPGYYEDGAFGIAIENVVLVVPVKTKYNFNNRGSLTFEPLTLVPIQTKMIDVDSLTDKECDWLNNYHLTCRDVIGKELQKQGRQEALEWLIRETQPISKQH

Sequence of bradykinin (P01042 whole entry, looked up): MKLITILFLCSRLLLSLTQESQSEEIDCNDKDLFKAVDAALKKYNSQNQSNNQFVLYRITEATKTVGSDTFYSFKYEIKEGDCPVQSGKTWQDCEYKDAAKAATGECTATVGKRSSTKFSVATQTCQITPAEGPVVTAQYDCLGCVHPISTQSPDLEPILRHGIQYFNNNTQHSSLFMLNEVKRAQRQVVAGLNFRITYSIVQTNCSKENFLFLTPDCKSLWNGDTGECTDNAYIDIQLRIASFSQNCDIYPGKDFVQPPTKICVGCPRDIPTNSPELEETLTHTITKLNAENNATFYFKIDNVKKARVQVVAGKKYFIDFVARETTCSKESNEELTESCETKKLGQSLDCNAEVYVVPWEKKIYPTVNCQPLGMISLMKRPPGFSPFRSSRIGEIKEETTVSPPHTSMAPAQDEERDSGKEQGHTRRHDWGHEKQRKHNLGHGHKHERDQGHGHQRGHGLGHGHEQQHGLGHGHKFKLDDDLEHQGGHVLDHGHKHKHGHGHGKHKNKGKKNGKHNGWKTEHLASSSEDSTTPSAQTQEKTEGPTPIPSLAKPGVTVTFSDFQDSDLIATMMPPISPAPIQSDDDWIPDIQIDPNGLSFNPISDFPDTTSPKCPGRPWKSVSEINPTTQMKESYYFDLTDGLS

## bradykinin (from UniProt P01042 381-389) (peptide)
  Km for bradykinin of the hydrolysis catalysed by R535A hcAMPP (HPLC of des-Arg-bradykinin, 50 mM Tris-HCl pH 7.5, 37°C), with 0, 0.1, 1 and 10 mM guanidine hydrochloride: 350, 327, 144 and 163 μM: 350 μM

Source: article PMC5774706
